Holding throughout (test): cell-based or functional assay
The target of experiment [1] is SARS-CoV-2 spike (S) protein, Omicron sublineage BQ.1.1 (SARS-CoV-2).
Experiment [2] has as its target SARS-CoV-2 spike (S) protein, Omicron sublineage BA.2.75.2 (SARS-CoV-2).
The target of experiment [3] is SARS-CoV-2 spike (S) protein, Omicron sublineage BA.4/5 (SARS-CoV-2).
Experiment [4] deals with SARS-CoV-2 spike (S) protein, Omicron sublineage XBB (SARS-CoV-2).
Experiment [5] deals with SARS-CoV-2 spike (S) protein, Omicron sublineage BQ.1 (SARS-CoV-2).

B1: MX1056 (trispecific antibody)
chain 1: DTVMTQSPLSLPVTPGEPASISCRSSQSLLNSNGYNYLDWYVQKPGQSPQLLIYLGSNRASGVPDRFSGSGSGTDFTLKISRVEAEDVGVYYCMQPLQTPLFTFGPGTKVEIKGGSSGEIVMTQSPAILSVSPGERATLSCRASQSVAINLAWYQQKPGQAPRLLIYAASSRATGIPGRFSGSGSETNFTLTISSLQSGDFAVYYCQQYITWPPSYTFGQGTKLEIKGGGGSGGSGSGGGGSASGSGEVQLVESGGALIQPGGSLRLSCAASGIIVSANYMSWVRQAPGKGLEWVSVIYSGGSTFYADSVKGRFTISRDNSKNTLYLEMNSLRAEDTAVYYCARDAPILGVSDWGQGTLVTVSSGGSSGQVTLRESGPALVKPTQTLTLTCTFSGFSLSTRGVCVSWIRQPPGKALEWLAFIDWDDDKYYNTSLKTRLTISKDTSKNQVVLTMTNVHPVDTATYYCARISSHHGSSWCTTFDYWGQGALVTVSAASGGSGDKTHTCPPCPAPELLGGPSVFLFPPKPKDTLMISRTPEVTCVVVDVSHEDPEVKFNWYVDGVEVHNAKTKPREEQYNSYVVSVLTVLHQDWLNGKEYKCKVSNKALPAPIEKTISKAKGQPREPQVYTLPPCRDELTKNQVSLWCLVKGFYPSDIAVEWESNGQPENNYKTTPPVLDSDGSFFKKLTVDKSRWQQGNVFSCSVLHEALHSHYTQKSLSLSPG
chain 2: DTVMTQSPLSLPVTPGEPASISCRSSQSLLNSNGYNYLDWYVQKPGQSPQLLIYLGSNRASGVPDRFSGSGSGTDFTLKISRVEAEDVGVYYCMQPLQTPLFTFGPGTKVEIKGGSSGQTVVTQEPSFSVSPGGTVTLTCGLSSGSVSTAYFPSWYQQTPGQAPRTLIYGTNTRSSGVPDRFSGSILGNKAALTITGAQADDESDYYCVLYMGRGIVVFGGGTKLTVLGGGGSGGSGSGGGGSASGSGQVQLVESGGGVVQPGRSLRLSCAASGFTLSSYGMHWVRQAPGKGLEWVAVISYDGSNKYYVDSVKGRFTISRDNSKNTLYLQMNSLRAEDTAVYYCRWAYWELLPDYYYGMDVWGQGTTVTVSSGGSSGQVTLRESGPALVKPTQTLTLTCTFSGFSLSTRGVCVSWIRQPPGKALEWLAFIDWDDDKYYNTSLKTRLTISKDTSKNQVVLTMTNVHPVDTATYYCARISSHHGSSWCTTFDYWGQGALVTVSAASGGSGDKTHTCPPCPAPELLGGPSVFLFPPKPKDTLMISRTPEVTCVVVDVSHEDPEVKFNWYVDGVEVHNAKTKPREEQYNSYVVSVLTVLHQDWLNGKEYKCKVSNKALPAPIEKTISKAKGQPREPQVCTLPPSRDELTKNQVSLSCAVKGFYPSDIAVEWESNGQPENNYKTTPPVLDSDGSFFLVSKLTVDKSRWQQGNVFSCSVLHEALHSHYTQKSLSLSPG
B1: the IC50, pseudovirus neutralization in experiment [1] came to 0.00584 µg/mL; in experiment [2] it was 0.00253 µg/mL; in experiment [3] it was 0.00412 µg/mL; in experiment [4] it was 0.00713 µg/mL; in experiment [5], 0.013 µg/mL. Also, the IC80, pseudovirus neutralization in experiment [1] was 0.0419 µg/mL; in experiment [2] it was 0.00992 µg/mL; in experiment [3], 0.00589 µg/mL; in experiment [4], 0.0236 µg/mL; in experiment [5], 0.0368 µg/mL.

B2: MX1057 (trispecific antibody)
chain 1: QTVVTQEPSFSVSPGGTVTLTCGLSSGSVSTAYFPSWYQQTPGQAPRTLIYGTNTRSSGVPDRFSGSILGNKAALTITGAQADDESDYYCVLYMGRGIVVFGGGTKLTVLGGSSGDTVMTQSPLSLPVTPGEPASISCRSSQSLLNSNGYNYLDWYVQKPGQSPQLLIYLGSNRASGVPDRFSGSGSGTDFTLKISRVEAEDVGVYYCMQPLQTPLFTFGPGTKVEIKGGGGSGGSGSGGGGSASGSGQVTLRESGPALVKPTQTLTLTCTFSGFSLSTRGVCVSWIRQPPGKALEWLAFIDWDDDKYYNTSLKTRLTISKDTSKNQVVLTMTNVHPVDTATYYCARISSHHGSSWCTTFDYWGQGALVTVSAGGSSGQVQLVESGGGVVQPGRSLRLSCAASGFTLSSYGMHWVRQAPGKGLEWVAVISYDGSNKYYVDSVKGRFTISRDNSKNTLYLQMNSLRAEDTAVYYCRWAYWELLPDYYYGMDVWGQGTTVTVSSASGGSGDKTHTCPPCPAPELLGGPSVFLFPPKPKDTLMISRTPEVTCVVVDVSHEDPEVKFNWYVDGVEVHNAKTKPREEQYNSYVVSVLTVLHQDWLNGKEYKCKVSNKALPAPIEKTISKAKGQPREPQVYTLPPCRDELTKNQVSLWCLVKGFYPSDIAVEWESNGQPENNYKTTPPVLDSDGSFFKKLTVDKSRWQQGNVFSCSVLHEALHSHYTQKSLSLSPG
chain 2: EIVMTQSPAILSVSPGERATLSCRASQSVAINLAWYQQKPGQAPRLLIYAASSRATGIPGRFSGSGSETNFTLTISSLQSGDFAVYYCQQYITWPPSYTFGQGTKLEIKGGSSGDTVMTQSPLSLPVTPGEPASISCRSSQSLLNSNGYNYLDWYVQKPGQSPQLLIYLGSNRASGVPDRFSGSGSGTDFTLKISRVEAEDVGVYYCMQPLQTPLFTFGPGTKVEIKGGGGSGGSGSGGGGSASGSGQVTLRESGPALVKPTQTLTLTCTFSGFSLSTRGVCVSWIRQPPGKALEWLAFIDWDDDKYYNTSLKTRLTISKDTSKNQVVLTMTNVHPVDTATYYCARISSHHGSSWCTTFDYWGQGALVTVSAGGSSGEVQLVESGGALIQPGGSLRLSCAASGIIVSANYMSWVRQAPGKGLEWVSVIYSGGSTFYADSVKGRFTISRDNSKNTLYLEMNSLRAEDTAVYYCARDAPILGVSDWGQGTLVTVSSASGGSGDKTHTCPPCPAPELLGGPSVFLFPPKPKDTLMISRTPEVTCVVVDVSHEDPEVKFNWYVDGVEVHNAKTKPREEQYNSYVVSVLTVLHQDWLNGKEYKCKVSNKALPAPIEKTISKAKGQPREPQVCTLPPSRDELTKNQVSLSCAVKGFYPSDIAVEWESNGQPENNYKTTPPVLDSDGSFFLVSKLTVDKSRWQQGNVFSCSVLHEALHSHYTQKSLSLSPG
Consider B2, for which the IC50, pseudovirus neutralization in experiment [1] amounted to 0.0123 µg/mL; in experiment [2] it was 0.00127 µg/mL; in experiment [3] it was 0.00404 µg/mL; in experiment [4] it was 0.00639 µg/mL; in experiment [5] it was 0.0083 µg/mL. In addition, the IC80, pseudovirus neutralization worked out at 0.0561 µg/mL in experiment [1]; 0.00379 µg/mL in experiment [2]; 0.00742 µg/mL in experiment [3]; 0.0355 µg/mL in experiment [4]; 0.0236 µg/mL in experiment [5].

B3: MX1065 (trispecific antibody)
chain 1: QTVVTQEPSFSVSPGGTVTLTCGLSSGSVSTAYFPSWYQQTPGQAPRTLIYGTNTRSSGVPDRFSGSILGNKAALTITGAQADDESDYYCVLYMGRGIVVFGGGTKLTVLGGSSGEIVMTQSPAILSVSPGERATLSCRASQSVAINLAWYQQKPGQAPRLLIYAASSRATGIPGRFSGSGSETNFTLTISSLQSGDFAVYYCQQYITWPPSYTFGQGTKLEIKGGGGSGGSGSGGGGSASGSGEVQLVESGGALIQPGGSLRLSCAASGIIVSANYMSWVRQAPGKGLEWVSVIYSGGSTFYADSVKGRFTISRDNSKNTLYLEMNSLRAEDTAVYYCARDAPILGVSDWGQGTLVTVSSGGSSGQVQLVESGGGVVQPGRSLRLSCAASGFTLSSYGMHWVRQAPGKGLEWVAVISYDGSNKYYVDSVKGRFTISRDNSKNTLYLQMNSLRAEDTAVYYCRWAYWELLPDYYYGMDVWGQGTTVTVSSASGGSGDKTHTCPPCPAPELLGGPSVFLFPPKPKDTLMISRTPEVTCVVVDVSHEDPEVKFNWYVDGVEVHNAKTKPREEQYNSYVVSVLTVLHQDWLNGKEYKCKVSNKALPAPIEKTISKAKGQPREPQVYTLPPCRDELTKNQVSLWCLVKGFYPSDIAVEWESNGQPENNYKTTPPVLDSDGSFFKKLTVDKSRWQQGNVFSCSVLHEALHSHYTQKSLSLSPG
chain 2: QTVVTQEPSFSVSPGGTVTLTCGLSSGSVSTAYFPSWYQQTPGQAPRTLIYGTNTRSSGVPDRFSGSILGNKAALTITGAQADDESDYYCVLYMGRGIVVFGGGTKLTVLGGSSGDTVMTQSPLSLPVTPGEPASISCRSSQSLLNSNGYNYLDWYVQKPGQSPQLLIYLGSNRASGVPDRFSGSGSGTDFTLKISRVEAEDVGVYYCMQPLQTPLFTFGPGTKVEIKGGGGSGGSGSGGGGSASGSGQVTLRESGPALVKPTQTLTLTCTFSGFSLSTRGVCVSWIRQPPGKALEWLAFIDWDDDKYYNTSLKTRLTISKDTSKNQVVLTMTNVHPVDTATYYCARISSHHGSSWCTTFDYWGQGALVTVSAGGSSGQVQLVESGGGVVQPGRSLRLSCAASGFTLSSYGMHWVRQAPGKGLEWVAVISYDGSNKYYVDSVKGRFTISRDNSKNTLYLQMNSLRAEDTAVYYCRWAYWELLPDYYYGMDVWGQGTTVTVSSASGGSGDKTHTCPPCPAPELLGGPSVFLFPPKPKDTLMISRTPEVTCVVVDVSHEDPEVKFNWYVDGVEVHNAKTKPREEQYNSYVVSVLTVLHQDWLNGKEYKCKVSNKALPAPIEKTISKAKGQPREPQVCTLPPSRDELTKNQVSLSCAVKGFYPSDIAVEWESNGQPENNYKTTPPVLDSDGSFFLVSKLTVDKSRWQQGNVFSCSVLHEALHSHYTQKSLSLSPG
Consider B3, for which the IC50, pseudovirus neutralization is 0.014 µg/mL in experiment [1], 0.0125 µg/mL in experiment [4] and 0.0335 µg/mL in experiment [5]. In addition, the IC80, pseudovirus neutralization turned out to be 0.0206 µg/mL in experiment [1], 0.0167 µg/mL in experiment [4] and 0.086 µg/mL in experiment [5].

B4: MX1066 (trispecific antibody)
chain 1: B3 chain 1
chain 2: B1 chain 2
As for B4, the IC50, pseudovirus neutralization in experiment [1] amounted to 0.0284 µg/mL; in experiment [4], 0.0287 µg/mL; in experiment [5], 0.0359 µg/mL. The figures for the IC80, pseudovirus neutralization in experiment [1], in experiment [4] and in experiment [5] were 0.0307 µg/mL, 0.0298 µg/mL and 0.0413 µg/mL, respectively.

Values taken from patent US20240109955A1.
